The text below walks through data of publication doi:10.1101/2023.02.18.529070 (bioRxiv, 2023).

The target of the assay is recombinant human HER3 extracellular domain (human, UniProt P21860 20-643). As to the kind of experiment: BLI. Background: Biolayer interferometry detects binding as a change in optical thickness at a sensor tip.
Chain of recombinant human HER3 extracellular domain (P21860 20-643): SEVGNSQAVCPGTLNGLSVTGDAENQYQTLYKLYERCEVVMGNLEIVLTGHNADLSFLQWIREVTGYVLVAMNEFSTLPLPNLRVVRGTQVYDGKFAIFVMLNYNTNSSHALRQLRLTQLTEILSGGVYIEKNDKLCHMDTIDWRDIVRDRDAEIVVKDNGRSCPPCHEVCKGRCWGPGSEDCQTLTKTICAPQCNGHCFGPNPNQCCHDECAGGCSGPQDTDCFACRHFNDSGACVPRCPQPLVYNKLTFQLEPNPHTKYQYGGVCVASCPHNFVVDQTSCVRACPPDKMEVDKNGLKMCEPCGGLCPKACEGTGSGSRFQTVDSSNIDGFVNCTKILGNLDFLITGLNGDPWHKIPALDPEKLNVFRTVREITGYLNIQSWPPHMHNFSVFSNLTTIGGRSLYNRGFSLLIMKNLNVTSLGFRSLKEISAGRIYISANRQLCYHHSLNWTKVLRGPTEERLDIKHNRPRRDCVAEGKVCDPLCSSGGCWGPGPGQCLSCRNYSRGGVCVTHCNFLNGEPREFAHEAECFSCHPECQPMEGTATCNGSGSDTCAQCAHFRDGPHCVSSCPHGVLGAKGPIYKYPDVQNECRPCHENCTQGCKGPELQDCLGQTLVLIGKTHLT

B1: neuregulin-beta1 (Ser 2-Lys 246 N-terminal fragment) (ligand, human, UniProt Q02297-6 2-246, looked up)
chain: SERKEGRGKGKGKKKERGSGKKPESAAGSQSPALPPRLKEMKSQESAAGSKLVLRCETSSEYSSLRFKWFKNGNELNRKNKPQNIKIQKKPGKSELRINKASLADSGEYMCKVISKLGNDSASANITIVESNEIITGMPASTEGAYVSSESPIRISVSTEGANTSSSTSTSTTGTSHLVKCAEKEKTFCVNGGECFMVKDLSNPSRYLCKCPNEFTGDRCQNYVMASFYKHLGIEFMEAEELYQK
For B1, the binding result is listed as “binds”.

B2: recombinant human LRG1 (leucine-rich alpha-2-glycoprotein 1) (ligand, UniProt P02750 36-347, looked up)
chain: VTLSPKDCQVFRSDHGSSISCQPPAEIPGYLPADTVHLAVEFFNLTHLPANLLQGASKLQELHLSSNGLESLSPEFLRPVPQLRVLDLTRNALTGLPPGLFQASATLDTLVLKENQLEVLEVSWLHGLKALGHLDLSGNRLRKLPPGLLANFTLLRTLDLGENQLETLPPDLLRGPLQLERLHLEGNKLQVLGKDLLLPQPDLRYLFLNGNKLARVAAGAFQGLRQLDMLDLSNNSLASVPEGLWASLGQPNWDMRDGFDISGNPWICDQNLSDLYRWLQAQKDKMFSQNDTRCAGPEAVKGQTLLAVAKSQ
Consider B2, for which the Kd – broadly, the concentration at which binding is half-saturated – is 100 nM and the “fold binding affinity against neuregulin-HER3” value was over 3 fold.
